From patent publication US20190382483A1 (published 2019)

T1: Recombinant hSIRPg-His (Sino Biologicals, reference 11828-H08H) (human, UniProt Q9P1W8 29-360)
T1 chain: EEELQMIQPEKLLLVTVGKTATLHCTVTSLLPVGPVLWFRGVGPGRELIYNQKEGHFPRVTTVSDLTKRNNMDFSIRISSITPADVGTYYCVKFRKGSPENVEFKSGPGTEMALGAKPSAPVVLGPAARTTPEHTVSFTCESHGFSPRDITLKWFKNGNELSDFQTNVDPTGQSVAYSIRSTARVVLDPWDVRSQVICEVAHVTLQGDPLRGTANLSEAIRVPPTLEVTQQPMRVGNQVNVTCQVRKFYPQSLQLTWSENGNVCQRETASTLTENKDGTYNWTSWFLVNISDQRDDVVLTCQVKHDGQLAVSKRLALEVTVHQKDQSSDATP

B1: SIRP29 (antibody, V domains shown)
VH: EVQLQQSGAELVKPGASVKLSCTASGFNIKDYYIHWVQQRTEQGLEWIGRIDPEDGETKYAPKFQDKATITADTSSNTAYLHLSSLTSEDTAVYYCARWGAYWGQGTLVTVSS
VL: QIVLTQSPAIMSASPGEKVTLTCSASSSVSSSYLYWYQQKPGSSPKLWIYSTSNLASGVPARFSGSGSGTSYSLTISSMEAEDAASYFCHQWSSYPRTFGAGTKLELK
B2: Kwar23 (antibody, V domains shown)
VH: B1 VH
VL: B1 VL

Biological target: T1, Recombinant hSIRPg-His (Sino …)
Test: Blitz (BLI)

Row | Binder | Kd [nM]
1 | B1 | 5.3
2 | B2 | 2.14
